The target of this assay is VEGF receptor on endothelial cells. The experiment in a line: inhibition of radiolabeled VEGF binding to its receptor on endothelial cells; peptide concentration varied.
Chain of VEGF receptor on endothelial cells (chain, as listed by the source): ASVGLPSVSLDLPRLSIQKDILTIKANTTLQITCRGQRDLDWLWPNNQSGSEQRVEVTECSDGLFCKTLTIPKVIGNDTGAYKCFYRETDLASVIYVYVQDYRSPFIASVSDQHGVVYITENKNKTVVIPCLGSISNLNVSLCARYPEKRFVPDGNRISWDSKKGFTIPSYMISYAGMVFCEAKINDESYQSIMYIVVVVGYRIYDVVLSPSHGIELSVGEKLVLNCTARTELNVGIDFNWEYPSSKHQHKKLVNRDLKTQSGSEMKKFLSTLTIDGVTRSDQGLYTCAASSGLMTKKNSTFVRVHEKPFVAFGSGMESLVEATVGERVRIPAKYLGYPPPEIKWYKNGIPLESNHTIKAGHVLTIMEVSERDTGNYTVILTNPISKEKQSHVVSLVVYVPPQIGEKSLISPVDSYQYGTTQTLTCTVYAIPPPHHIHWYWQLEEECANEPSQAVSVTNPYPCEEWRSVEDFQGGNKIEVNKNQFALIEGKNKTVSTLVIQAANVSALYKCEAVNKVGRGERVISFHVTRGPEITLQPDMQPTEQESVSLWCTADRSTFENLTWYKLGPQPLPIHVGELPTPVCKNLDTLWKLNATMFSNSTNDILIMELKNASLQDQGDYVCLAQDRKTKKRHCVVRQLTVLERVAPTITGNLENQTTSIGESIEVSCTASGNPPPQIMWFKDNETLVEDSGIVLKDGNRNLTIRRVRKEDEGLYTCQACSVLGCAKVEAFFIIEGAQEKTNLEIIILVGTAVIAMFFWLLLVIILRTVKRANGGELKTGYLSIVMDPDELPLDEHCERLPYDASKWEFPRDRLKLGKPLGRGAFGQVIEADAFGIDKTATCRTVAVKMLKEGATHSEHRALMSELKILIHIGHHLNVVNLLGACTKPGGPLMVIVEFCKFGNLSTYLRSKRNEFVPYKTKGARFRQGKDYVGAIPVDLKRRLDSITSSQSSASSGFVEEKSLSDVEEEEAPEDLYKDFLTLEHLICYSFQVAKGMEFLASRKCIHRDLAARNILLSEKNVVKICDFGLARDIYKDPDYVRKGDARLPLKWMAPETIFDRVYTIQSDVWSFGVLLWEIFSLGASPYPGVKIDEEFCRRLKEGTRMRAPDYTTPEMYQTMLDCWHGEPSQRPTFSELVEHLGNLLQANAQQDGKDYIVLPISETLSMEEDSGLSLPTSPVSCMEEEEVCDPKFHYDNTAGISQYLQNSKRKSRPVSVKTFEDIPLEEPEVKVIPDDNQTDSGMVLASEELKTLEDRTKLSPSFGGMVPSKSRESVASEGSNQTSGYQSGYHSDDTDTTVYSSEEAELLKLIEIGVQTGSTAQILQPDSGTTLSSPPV

B1: ST100,033 (peptide)
peptide: PYAGRGDSVVYGLGGGPGAARGRRAARGRR
The IC50 is the midpoint of a concentration-inhibition curve. Low readings indicate inhibition by little substance, high ones a need for much substance. B1: the IC50 is 1100 nM.

B2: ST100,032 (peptide)
peptide: YDGRGDSVVYGLKKKAARGRRAARGRR
For B2, the IC50 came to 430 nM.
